Results on two substances are retold here after patent publication US8252764B2, “Compositions and methods of use of targeting peptides against placenta and adipose tissues” (priority 2000, dated 2012).

One data set deals with T1, GST-β1 (Homo sapiens, UniProt P05556).
T1 construct: Plates were coated with GST fusion proteins of the cytoplasmic domains of various integrins
Nature of the data set: Annexin V binding to GST-β1 integrin cytoplasmic domain (ELISA). The method, then: (§1) Competitive binding assays were performed to examine the binding of Annexin V to β5 integrin and the effect of the VISY peptide. Plates were coated with GST fusion proteins of the cytoplasmic domains of various integrins and Annexin V was added to the plates. Binding of Annexin V was determined using anti-Annexin V antibodies. […] Calcium was used because Annexin V activity has been reported to be modulated by calcium. Binding of Annexin V to GST-β5 was blocked by addition of the VISY peptide (FIG. 29A).

Another data set concerns the target T2, GST-β3 (Homo sapiens, UniProt P05106).
T2 sequence (P05106 742-788 limits assumed): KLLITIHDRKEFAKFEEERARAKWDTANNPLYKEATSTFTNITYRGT
Nature of the data set: Annexin V binding to GST-β3 integrin cytoplasmic domain (ELISA). As for the experimental part:
as §1

A further data set addresses T3, β5 integrin (Homo sapiens, UniProt P18084).
T3 construct: Plates were coated with GST fusion proteins of the cytoplasmic domains of various integrins
T3 sequence (P18084 743-799 limits assumed): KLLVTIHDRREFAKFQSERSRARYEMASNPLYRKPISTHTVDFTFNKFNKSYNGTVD
Nature of the data set: Annexin V binding to GST-β5 integrin cytoplasmic domain (ELISA, competition). The settings on record: binding dependent on the buffer: low in TBS, high in cytoplasmic buffer. The method, then:
FIG. 29A. Competitive binding of Annexin V to β5 integrin with VISY peptide. Binding assays were performed by ELISA.
as §1
A reciprocal study was performed, using Annexin V to coat plates and adding GST fusion proteins of integrin cytoplasmic domains. Binding was assessed using anti-GST fusion protein antibodies. […] In some studies, calcium ion appeared to interfere with the binding interaction between GST-β5 and Annexin V, with decreased binding observed in the presence of calcium (not shown).

Another data set concerns placental transporter. Nature of the data set: Phage recovery from embryos (materno-fetal transfer). Format: in vivo, mouse. The settings on record: excess of co-injected peptide. As for the experimental part: FIG. 4. The TPKTSVT (SEQ ID NO:5) peptide specifically binds a placental transporter. (A) Recovery of indicated phage from embryos carried by 18 dpc pregnant mice intravenously injected (tail vein) with 10^10 TU of the indicated phage 6 h prior to phage recovery or immunohistochemistry. […] TPKTSVT (SEQ ID NO:5) phage were administered alone (dark cross-hatched) or co-administered with control-GST (black) or TPKTSVT (SEQ ID NO:5) linked to GST (white bar). Shown are mean+/−SEM (standard error) from different embryos. (B-D) Anti-phage IMP immunohistochemistry (arrowheads) in paraffin sections of the vys from the corresponding mice, as indicated. Asterisks mark embryonic capillaries. Bar: 20 μm.
Phage Recovery Mouse placentas and embryonic livers were individually weighed, ground with a glass Dounce homogenizer and suspended in 1 ml of Dulbecco's Modified Eagle's Medium (DMEM) containing proteinase inhibitors (DMEM-prin—1 mM PMSF, 20 μg/ml aprotinin, and 1 μg/ml leupeptin). The suspension was vortexed and washed three times with DMEM-prin. […]
The TPKTSVT (SEQ ID NO:5) Peptide Binds to a Placental Transporter The TPKTSVT (SEQ ID NO:5) peptide localizes to the vys (FIG. 3), which is the tissue primarily responsible for materno-fetal transport in mice. […] Either TPKTSVT (SEQ ID NO:5)-phage or control phage were injected into pregnant mice and the recovery of phage from embryos was determined.

Data set [1] relates to placenta. Nature of the data set: Peptide embryotoxicity in pregnant mice. Format: in vivo, mouse. The settings on record: subcutaneous injections from ~12 dpc. The source says: FIG. 7. TPKTSVT (SEQ ID NO:5) peptide inhibits mouse pregnancy and is teratogenic. (A) Pregnancy courses (representative from 5 independent experiments) in mice subcutaneously injected with the indicated phage or peptides were monitored by daily weighing of the mice upon each injection (arrows). (B) Appearance of a normally developed 20 dpc embryo (left) for control GST fusion treatment compared to a representative 20 dpc embryo (right) resulting from TPKTSVT (SEQ ID NO:5) linked to GST fusion treatment. A severely teratogenic phenotype is observed with the placental targeting fusion peptide. (C) and […]) Hematoxylin/eosin staining of 20 dpc paraffin-embedded placentas derived from mice injected for 7 days with (C) control GST fusion or (D) the TPKTSVT (SEQ ID NO:5) linked to GST fusion peptide. Note hemorrhage (black asterisks), necrosis (white asterisks), and fibrosis (arrowheads). Bar: 500 μm (50 μm for insets).
Peptide Embryotoxicity For peptide embryotoxicity studies, agents were injected at the following daily doses: GST-peptides 0.1 mg (˜3 nMoles), FITC-peptides 50 μg (˜30 nMoles),and phage-peptides 10″ TU. All agents were dissolved in PBS. Mice were injected subcutaneously in the back (5-10 injections per course).
The phage or fusion peptides were subcutaneously injected and the progression of pregnancy was compared with mice injected with control phage, control peptides, or saline. Multiple injections of the TPKTSVT (SEQ ID NO:5) peptide were administered, starting at mid-pregnancy (˜12 days postconception, dpc) in doses non-toxic to the mother.

For data set [2], the target named is T4, FcRn/β2m receptor complex (Mus musculus, UniProt P01887+Q61559).
T4 construct: from tissue; host or cells: placenta (visceral yolk sac) of 18 dpc pregnant C57BL/6 mice, in vivo
T4 sequence (Q61559 22-365): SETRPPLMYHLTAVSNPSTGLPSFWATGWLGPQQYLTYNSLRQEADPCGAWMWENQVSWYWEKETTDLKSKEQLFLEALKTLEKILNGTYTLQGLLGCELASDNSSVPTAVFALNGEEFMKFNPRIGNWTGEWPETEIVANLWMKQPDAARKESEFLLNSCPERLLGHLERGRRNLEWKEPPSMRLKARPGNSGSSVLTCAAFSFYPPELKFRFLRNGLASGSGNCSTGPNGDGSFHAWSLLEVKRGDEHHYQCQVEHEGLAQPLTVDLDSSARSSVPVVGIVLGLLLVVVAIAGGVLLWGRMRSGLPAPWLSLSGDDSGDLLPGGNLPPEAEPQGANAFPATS
T4 sequence (P01887 21-119): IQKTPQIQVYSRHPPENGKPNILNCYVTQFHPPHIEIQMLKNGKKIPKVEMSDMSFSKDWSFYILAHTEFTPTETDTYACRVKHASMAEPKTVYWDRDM
Nature of the data set: Placental IgG transcytosis blocking. Format: in vivo. To be noted: 18 dpc pregnant mouse, iv, 6 h.
Protocol: A 18 dpc pregnant mouse was intravenously injected with: (A) 100 mg of control GST fusion or (B) TPKTSVT (SEQ ID NO:5) linked to GST. The IgG distribution in the placenta after 6 h of peptide circulation was detected by anti-mouse IgG immunohistochemistry in paraffin sections.
For in vivo peptide homing validation, 10 μl of FTC-peptide stocks diluted 20-fold with PBS or, 250 μl of 5 mg/ml GST-peptides were injected. For phage homing competition and IgG transcytosis blocking experiments, 500 μl of 5 mg/ml GST-peptides were administered intravenously.
For GST-peptide immunolocalization, a goat anti-GST antibody (Amersham, Piscataway, N.J.) was used at 1:1,000 dilution and detected with a secondary alkaline phosphatase (AP)-conjugated antibody. For mouse IgG immunolocalization, the ARK Peroxidase Kit (DAKO, Carpinteria, Calif.) was used. All immunohistochemistry and FITC immunofluorescence images were captured using an Olympus IX70 microscope and digital camera setup.

Data set [3] relates to placenta. To be noted: GST conjugates-I; 1 mouse sc (predominantly) or iv ~every other day, day 4-day 17, 10 times, Total 800 μg. The source says: The CARAC peptide (SEQ ID NO:12), an adipose targeting peptide (FE, TREVHRS, SEQ ID NO:13) or fd-tet phage were used as non-placental targeting controls.
Data set [4] has as its system mouse villous yolk sac (vys). Nature of the data set: Peptide localization in placenta (immunohistochemistry, FITC immunofluorescence). Format: in vivo. To be noted: 18 dpc pregnant mice, intravenous, 6 h.
Protocol: Fusion and Recombinant Peptides Carboxyfluorescein (FITC)-conjugated [sequence] […] The FITC-peptide stocks were made by dissolving lyophilized peptides in DMSO to a concentration of 20 mM, after which the peptides were diluted to 1 mM with PBS (phosphate buffered saline) and aliquots were frozen until use. The [sequence] (SEQ ID NO:144) peptide and an unrelated control peptide, [sequence] (SEQ ID NO:87), fused in-frame with GST at the amino-terminus were purified to approximately 90% purity using the BugBuster GST Bind Kit (Novagen, Madison, Wis.). Purified peptides were buffer-exchanged into PBS using Centricon PL-10 columns (Millipore, Bedford, Mass.) and the aliquots were frozen until use. […]
Peptide Localization in Tissues Immunohistochemistry on sections of formalin-fixed, paraffin-embedded mouse tissue was performed as described (Pasqualini et al., 2000; Pasqualini and Ruoslahti, 1996): For phage-peptide immunolocalization, a rabbit anti-fd phage antibody (Sigma Chemicals, St. Louis, Mo.) was used at 1:1,000 dilution and detected with a secondary horseradish peroxidase (HRP)-conjugated antibody. For GST-peptide immunolocalization, a goat anti-GST antibody (Amersham, Piscataway, N.J.) was used at 1:1,000 dilution and detected with a secondary alkaline phosphatase (AP)-conjugated antibody. […]

T1 sequence (P05556 752-798 limits assumed): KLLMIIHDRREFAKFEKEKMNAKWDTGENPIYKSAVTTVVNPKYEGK

Turning to “Annexin V: 36 kDa endogenous protein analog of the VISY peptide, GenBank GI-468888”, the “binding of Annexin V to GST-β1 integrin” value with GST-β1 is listed as “did not bind”. In addition, in the data set with GST-β3, the “binding of Annexin V to GST-β3 integrin” value is listed as “did not bind”. For the same substance, the “binding of Annexin V to GST-β5 integrin” value in the data set with β5 integrin was “bound strongly”.

As for “GST-PA: PA placental targeting peptide (TPKTSVT) fused to GST (glutathion S-transferase)”, the “effect on materno-fetal transfer / vys uptake of TPKTSVT-phage on co-injection” value with placental transporter is on record as “prevented internalization”. In the data set with placenta [1], the “embryos on the 20th day of pregnancy” value was “Growth-retarded, dead, or partially resorbed embryos”. For the same substance, the “progression of pregnancy (weight gain)” value in the data set on placenta [1] (compared to control phage or GST-peptide) is recorded as “diminished weight gain”. In data set [2], the “effect on placental transfer of IgG to the vys” value was “blocked translocation of IgG through the placenta”. Further, in the data set on placenta [3], the “Peptide Effect on Embryo” value is recorded as “Pregnancy termination” and the “Pregnancy Outcome” value is on record as “No delivery or fetuses after 21 d”. For the same substance, the localization in placenta entry in data set [4] is on record as “readily detectable in the apical cytoplasm of the vys”.
